According to article PMC55327 (Genome Biology, 2001):

Assays:
[1] = target: T1, *AatIβ (periplasmic aromatic aminotransferase) (Pseudomonas aeruginosa, UniProt Q9I0V2); test: aromatic aminotransferase activity assay; type: biochemical; conditions: activity followed through purification
T1 sequence (Q9I0V2 29-374): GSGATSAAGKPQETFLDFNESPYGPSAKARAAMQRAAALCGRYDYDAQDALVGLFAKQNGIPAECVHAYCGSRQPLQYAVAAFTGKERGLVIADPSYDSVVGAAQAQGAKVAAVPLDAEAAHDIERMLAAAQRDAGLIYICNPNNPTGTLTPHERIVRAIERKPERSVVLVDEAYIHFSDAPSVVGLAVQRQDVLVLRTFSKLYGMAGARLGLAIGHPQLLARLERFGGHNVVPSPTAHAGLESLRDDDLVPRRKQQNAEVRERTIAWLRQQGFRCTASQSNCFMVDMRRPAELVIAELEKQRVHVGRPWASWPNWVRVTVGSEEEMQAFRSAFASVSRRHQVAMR

[2] = tested on: C=C(O[C@@H]1C=C(C(=O)O)C=C[C@H]1O)C(=O)O; test: purified protein; type: biochemical, Pantoea agglomerans; conditions: 32°C, 40–75 nM enzyme, 0.1 mg/ml bovine serum albumin
[3] = tested on: C=C(O[C@@H]1C=C(C(=O)O)C=C[C@H]1O)C(=O)O; test: purified protein; type: biochemical, Salmonella enterica; conditions: 32°C, 40–75 nM enzyme, 0.1 mg/ml bovine serum albumin
[4] = substrate: C=C(O[C@@H]1C=C(C(=O)O)C=C[C@H]1O)C(=O)O; test: purified protein; type: biochemical, Pseudomonas aeruginosa; conditions: 32°C, 40–75 nM enzyme, 0.1 mg/ml bovine serum albumin

N[C@@H](Cc1ccccc1)C(=O)O [phenylalanine]
aromatic aminotransferase activity assay ([1]; co-substrate α-ketoglutarate): phenylalanine and α-ketoglutarate were used as the substrates, unless indicated otherwise

O=C(O)CCC(=O)C(=O)O [α-ketoglutarate]
aromatic aminotransferase activity assay ([1]; co-substrate phenylalanine): phenylalanine and α-ketoglutarate were used as the substrates, unless indicated otherwise

*AroQ (Erwinia herbicola periplasmic chorismate mutase) (Pantoea agglomerans)
Km [2]: 169 µM | kcat [2]: 9.7 s⁻¹

*AroQ (Salmonella typhimurium periplasmic chorismate mutase) (Salmonella enterica subsp. enterica serovar Typhimurium)
Km [3]: 142 µM | kcat [3]: 8.9 s⁻¹

B1: *AroQ (Pseudomonas aeruginosa periplasmic chorismate mutase) (Pseudomonas aeruginosa PAO1) (protein)
chain: QPLSPALQQLLSLSSQRLQLADQVAQSKAQSGKAVQDSPREEQQLQMLAGQAGSHGVGAEQVRLLFAAQIEANKLVQYRLLSRPLPDAGQAVDLERIRSRLNQLNLELLRGYAPALAELRVDDCRPRLNQALQRQVRVDRLDELHAIALSRAAGDLCHWAEL
kcat [4]: 6.4 s⁻¹
